Measured values from the RNAGym collection of RNA variant scans (doi:10.1073/pnas.2313332121).

B1: TPR t1 (parent)
chain: GACCAAUCUGCCCUCAGAGCUCGAGAACAUCUUCGGAUGCAGAGGAGGCAGGCUUCGGUGGCGCGAUAGCGCCAACGUCCUCAACCUCCAAUGCAUCCCACCACAUGAUGAUGCCUGAAGAGCCUUGGUUUUUUG

Variants of: B1
Assay: polymerase ribozyme fitness, log enrichment relative to wild type (log ratio); higher = more active; in vitro selection for triplet polymerase activity
Outline: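 Genotype fitness is the logarithm of its enrichment divided by wild-type enrichment, using inverse-variance-weighted averages of replicates. That logarithm is base 2. Enrichment was measured by Illumina sequencing of input and output libraries from one triplicate in vitro selection round, with frozen incubation at −7 °C, on PCR-built, transcribed mutant libraries of each subunit of a heterodimeric triplet polymerase ribozyme, retaining genotypes with ≥10 input reads and ≥1 read per output.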

Variant	polymerase ribozyme fitness (log ratio)
C8U G48C	0.186
C8G G93U	-0.15
C8U G71A	-0.229
C8G G48U	-0.882
U9A A29U A41U G60A U78C G93U A119G	-2.57
C8G C89A C114U	-0.406
U9C C34U C56G G77A U106A G113A A121G	-3.53
C8U A26U U59G	-2.5
C8U G44U C88G	-1.96
U9A G42A U87C C101A G120A	-1.63
C8G G47U C123U	0.786
C8U G19A U21C U55C	-2.54
U9A A90U U96C U106A G128C	-5.11
C8U U14A G61A	-0.345
U9A C13G A46G G107C G135U	-7.09
C8G C11U A16C G44C U59C G60A C115G	-4.64
C8U G117A A119U C123U U133G	-1.22
U9A C11A C70U C85U	-1.15
C8G G17C C53U	-2.9
C8U G19C G42U A91G C123U	-0.955
C8U C73A C88G	-1.06
C8G C12G G60U G93A	-0.276
U9A G42A G57U C115A G127U U131A	-3.74
C8U C11A	0.824

Variant	polymerase ribozyme fitness (log ratio)
U9A C56U C73U	0.233
C8U C12A A41U A46G G71A C89U	-2.07
U9A C13U U92A C101A	-4.36
U9C C12U C22G G45C C72G A100U	-4.47
C8G C56G	0.255
C8G C88A A111C	0.461
C8G C72U C89A A105U	-3.93
U9A A16U G63U U132A	-1
U9A G36A G113A	-0.728
C8G C15U A46C C72U G93A G110A	-2.41
C8U C72U U87C	0.806
C8U C40U	0.0119
U9A G51A G52A C70G C82U G120C	-5.71
U9A C34U A37C A46U C56U G107C C114U G122A G127C	-7.05
U9C C13U A27U A46C G52A G113A	-6.07
C8G C104A	-0.951
C8U A29U C70U	-2.36
C8G U32G C101U C124A	-4.92
C8U A50U C94A	-1.52
C8G U14A U55G C73G C97A	-4.31
C8U C40G G63U A100G	-5.92
C8U C12A G42A C70U U92A	-4.6
U9A C62A C85G U131C	-1.16
U9A C12G U87G C99U	-2.31

Variant	polymerase ribozyme fitness (log ratio)
C8G C73G A91G	-1.87
C8G C15U C89G G93A C101U G113C C114U G127C	-3.86
C8U C64U U96C	-0.074
C8U C82U U116G G117A	0.198
U9A A75U U96G	-0.383
U9A U55G C56G	-0.896
U9A A16C C49U A66G C101G C123A	-4.86
U9A G63U G120C	0.699
C8G C89A C94G	-2.14
C8G C13U C40G C124G	0.821
U9A A18G C82U C115U	-3.35
U9A C22U	-3.34
U9A G45U C73U C98U	-0.532
C8U U21C G122A	-0.0897
U9C C15G U106A	-1.27
C8G C12U U21G G39C	-1.78
C8G C115A	0.863
C8G U30C	-2.51
C8G G65C C114U C123A	-7.69
C8G G17U A26U G120U	-2.91
C8G U9G C12G C49G A91U	-2.4
C8U C22A A26G C28U C34A G63U C104A U112C G135A	-2.92
U9A C80U C101U A111U U116A	-4.4
U9C A41C G52A C98U U130G	-2.71

Variant	polymerase ribozyme fitness (log ratio)
C8U G44U C88G U92A	-3.81
C8U G63A C102A U106C G113A U130G	-5.25
U9A A18U A41G U92A	-2.99
U9A C89G A90U	-0.63
C8G C53A	0.628
C8G G60A C104U	-0.296
C8U C94A	-0.617
C8G C12U A68G G122A C123U	-1.28
C8U G42U A50U	-3.49
C8U A24G G44U U106C	-1.81
U9A G44A G69A C72U U87C	-3.54
C8G U33C C64A U106A G120C	-6.76
U9C C31U C56A A103U G120U	-6.8
C8U G57U G110U	-1.01
C8U U9A C11A C13A G44U C73A A100U C102U	-4.18
C8U A18U A50U G69C C82A C124G	-3
C8G G44C C64U C76A C124G	-6.22
C8U C114G U126C	-1.85
C8G C13A A91G U106G G117U	-3.24
U9A A83U	0.0435
C8G U9C C56G G69A	-2.35
C8G U9G C73G C123A	1.1
U9A G71A C85A G93A C102A	-3.84
C8U A16U A37U G52C C56G C79A G110U U126A	-4.2

Variant	polymerase ribozyme fitness (log ratio)
C8U A50U	-0.00813
C8G C11U C82A U112A	0.802
C8U A46G	-0.00753
C8U A46U	-0.626
C8G C102U	-1.57
C8G C12U C97G	-3.16
C8U G44U C99U	-2.6
C8G U38A A100U	-2.56
C8G C20A C82U A100C U112C	-3.16
C8U A27G C82A	-1.59
C8U U14C U78C U106A G120A	1.87
C8G G63U G77C U129C	-2.81
C8U C28G	-1.19
C8U C12U C70G C94A	-3.02
U9A G58A G61A C85A G113A	-0.721
U9A G52A C104U G110C	-3.92
C8G C114A	0.0806
U9A A50U C102A	-1.91
C8U A121U	2.15
C8U G52U C86A	-1.28
C8G C11U U116C G120U	0.747
C8U C22U G39U G113A G120C C123A	-5.45
C8U G52A A74U U112C	1.59
U9C C13U G48A A74C U81G C101U U126C	-2.71

Variant	polymerase ribozyme fitness (log ratio)
U9A U30C G44A G57U G60A U112G U125A	-5.02
C8G C98A C102A C115A	-3.34
C8U U21A U30C C56U	-3.2
C8U C56U C89A A118U	-1.04
C8G C31A A41U C73G U112A	-6.12
C8G C124A	2.31
C8G C12G U59G U129C	0.2
C8G U21A U38G C76U C88A U112G A121C	-4.14
C8G G52A G63C C94G G113C U131G	-4.64
C8U G58A G110A	-1.27
C8U C72A C98U U116A G128C	-6.24
C8G C20U A46U G52C A91G	-4.53
C8U C80G	-4.55
C8U U9C A119U	0.976
U9A C73G G117A	0.428
C8G G52U C64U C73U U96G	-1.4
C8U U9G U59C C72U	0.524
C8U A24G U112G	-0.0167
U9C C12U A16G C49G	0.31
C8G C11G G36U G71C U78G U132A	-4.02
C8G C12G C56U U106G U112G A118C U133G	-1.11
C8G G19U G48A A50U U54G U96A C114A	0.218
C8U C64A U78C	-6.51
U9A C11U A100U	-0.0164

Variant	polymerase ribozyme fitness (log ratio)
C8G C73U C86U	0.186
U9A A29U G36C G44U C72A A84G	-3.62
C8G G35C	-4.29
C8G C12G A27U C64U	-1.4
U9A G69U	0.755
C8G U9C C56G	0.364
U9A C13G G35A	-3.79
C8U G19C C56A C115A	-2.03
C8G C20G C40G U96C U112A	-6.13
C8U C82U G113U	-2.67
U9C C11U G71A A111C	-1.02
C8U U30C C49U C124G U133G	-3.25
U9C C31U A37U	-5.02
U9C A111U A121C U126A U130G	-4.36
C8U G44A C56A C72A U81C A111C	-3.76
C8G G39U C70U U78A	-0.697
C8G G48U G58C A75U U109C G113U	-6.98
C8U C13A C85A U106C C123A	-0.442
C8G C49A U96G	0.183
C8G C22G G47A C70U G77U	-4.84
U9A A24C U59C A91U A111C	-6.66
C8U U9G A37G G117C	-0.0473
C8U G48C C56A	-0.762
